T1: LexA-tagged budding yeast Bfa1p (pGP122, LexA-BFA1) (budding yeast, UniProt P47113 1-574, limits assumed)
T1 construct: Construct pGP122 obtained from Elmar Schiebel; also called LexA-Bfa1p; not shown: LexA part of the vector
T1 sequence (looked up): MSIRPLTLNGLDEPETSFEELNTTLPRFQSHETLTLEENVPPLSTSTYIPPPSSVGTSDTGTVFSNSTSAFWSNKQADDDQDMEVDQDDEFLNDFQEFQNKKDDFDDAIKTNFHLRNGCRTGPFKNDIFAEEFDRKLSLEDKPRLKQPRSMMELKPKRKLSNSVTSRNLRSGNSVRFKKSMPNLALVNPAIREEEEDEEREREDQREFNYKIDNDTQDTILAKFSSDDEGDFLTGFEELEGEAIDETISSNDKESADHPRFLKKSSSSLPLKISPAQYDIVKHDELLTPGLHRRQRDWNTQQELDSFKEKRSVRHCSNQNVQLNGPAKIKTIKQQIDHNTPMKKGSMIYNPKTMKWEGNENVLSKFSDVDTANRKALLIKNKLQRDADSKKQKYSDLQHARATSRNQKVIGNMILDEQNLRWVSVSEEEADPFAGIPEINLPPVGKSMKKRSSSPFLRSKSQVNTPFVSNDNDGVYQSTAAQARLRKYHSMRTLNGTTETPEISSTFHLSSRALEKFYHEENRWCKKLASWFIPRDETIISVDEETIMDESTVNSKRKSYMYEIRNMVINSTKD

T2: LexA-tagged budding yeast Bub2p (pGP69, LexA-BUB2) (budding yeast, UniProt P26448 1-306, limits assumed)
T2 construct: Construct pGP69 obtained from Elmar Schiebel; also called LexA-Bub2p; not shown: LexA part of the pEG202-type vector
T2 sequence (looked up): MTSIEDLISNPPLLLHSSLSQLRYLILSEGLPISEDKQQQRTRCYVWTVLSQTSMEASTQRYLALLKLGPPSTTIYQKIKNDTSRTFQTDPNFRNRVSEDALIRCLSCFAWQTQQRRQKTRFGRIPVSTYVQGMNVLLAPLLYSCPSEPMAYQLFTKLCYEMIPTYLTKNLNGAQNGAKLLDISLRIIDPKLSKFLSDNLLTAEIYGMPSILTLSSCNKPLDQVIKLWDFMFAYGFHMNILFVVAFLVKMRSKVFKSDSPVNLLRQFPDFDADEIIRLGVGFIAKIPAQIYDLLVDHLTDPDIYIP

B1: human centriolin Nud1 domain (amino acids 127-233 of centriolin) fused to the GAL4 transactivation domain (other, not shown: small tags and cut ends)
chain (part 1 of 2): ANFNQSGNIADSSLSFTFTNSSNGPNLITTQTNSQALSQPIASSNVHDNFMNNEITASKIDDGNNSKPLSPGWTDQTAYNAFGITTGMFNTTTMDDVYNYLFDDEDTPPNPKKE
chain (part 2 of 2): LEVLNLSYNLIGKIEKLDKLLKLRELNLSYNKISKIEGIENMCNLQKLNLAGNEIEHIPVWLGKKLKSLRVLNLKGNKISSLQDISKLKPLQDLISLILVENPVVTL
notes: also called TAD-hNud1; hNud1
B2: GAL4 transactivation domain alone (other, UniProt P04386 768-881, looked up)
chain: B1 chain (part 1 of 2)
notes: also called TAD
B3: LexA alone (pEG202) (other, UniProt P0A7C2 1-202, looked up)
chain: MKALTARQQEVFDLIRDHISQTGMPPTRAEIAQRLGFRSPNAAEEHLKALARKGVIEIVSGASRGIRLLQEEEEGLPLVGRVAAGEPLLAQQHIEGHYQVDPSLFKPNADFLLRVSGMSMKDIGIMDGDLLAVHKTQDVRNGQVVVARIDDEVTVKRLKKQGNKVELLPENSEFKPIVVDLRQQSFTIEGLAVGVIRNGDWL

Legend:
[1] = biological target: T1, LexA-tagged budding yeast Bfa1p …; assay: directed yeast two-hybrid
Text: (§1) A 321 base pair fragment containing amino acids 127-233 of centriolin were cloned into EcoR I and Sal I sites of pGADT7 (Clontech) to produce a fusion with the GAL4 transactivation domain (TAD). Constructs pEG202 (LexA), pGP69 (LexA-BUB2), pGP122 (LexA-BFA1) and the yeast strain SGY37 were from Elmar Schiebel (Paterson Institute for Cancer Research, Manchester, U.K.). SGY37, which contains a LacZ reporter gene under control of a LexA operator, was transformed with plasmid DNA using LiAc (Ito et al., J Bacteriol, 153:163-168, 1983) and transformants selected for on dropout medium. Methods used were semi-quantitative β-galactosidase assays (Schramm et al., Methods Cell Biol., 67:71-94, 2001) and more quantitative β-galactosidase assays with CPRG (chlorophenol red-b-D-galactopyranoside, Roche) as a substrate per the manufacturer's instructions (Clontech Yeast Protocols Handbook). Co-immunopreciptation of LexA and GAL4 TAD fusion proteins were carried out as previously described (Schramm et al., Methods Cell Biol., 67:71-94, 2001).

[2] = biological target: T2, LexA-tagged budding yeast Bub2p (pGP69, …); assay: directed yeast two-hybrid, LexA-BUB2 x TAD control
Text: as §1

[3] = biological target: B1; assay: directed yeast two-hybrid, TAD-hNud1 x LexA control
Text: as §1

**Q.** Does B1 bind [1]?
**A.** Result: no binding

**Q.** Does B2 bind [2]?
**A.** Result: no binding

**Q.** Does B3 bind [3]?
**A.** Result: no binding

From patent US20040175721A1 (UNIVERSITY OF MASSACHUSETTS A MASSACHUSETTS, published 2004)
